He/Con_1a data for eleven molecules are collected here from US20150344570A1 (published 2015).

This assay concerns the target T1, FcγRIa (human, UniProt P12314 16-292).
T1 construct: extracellular domain; soluble His-tagged extracellular domain expressed in FreeStyle293 cells, used as analyte in Biacore; also called FcgRI; CD64
Nature of the assay: SPR (Biacore), captured antibody, FcγRIa analyte; relative to GpH7-A5/GpH7-B3/GpL16-k0.

T1 sequence (P12314 16-292): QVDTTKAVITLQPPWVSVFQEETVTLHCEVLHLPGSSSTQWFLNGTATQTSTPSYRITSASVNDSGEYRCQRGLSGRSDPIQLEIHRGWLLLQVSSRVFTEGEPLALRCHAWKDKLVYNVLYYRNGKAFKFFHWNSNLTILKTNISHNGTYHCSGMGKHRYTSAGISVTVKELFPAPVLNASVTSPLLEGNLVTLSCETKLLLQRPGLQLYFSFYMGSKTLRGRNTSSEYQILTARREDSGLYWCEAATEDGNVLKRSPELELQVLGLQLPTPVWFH

B1: GpH7-A5/GpH7-B3 variant T335_07I/GpL16-k0 (antibody, human IgG1, kappa)
heavy 1: not shown
heavy 2: not shown
light: DIVMTQSPLSLPVTPGEPASISCQASESLVHSNRNTYLHWYLQKPGQSPQLLIYKVSNRFSGVPDRFSGSGSGTDFTLKISRVEAEDVGVYYCSQNTHVPPTFGQGTKVEIERTVAAPSVFIFPPSDEQLKSGTASVVCLLNNFYPREAKVQWKVDNALQSGNSQESVTEQDSKDSTYSLSSTLTLSKADYEKHKVYACEVTHQGLSSPVTKSFNRGEC
notes: heterodimerized IgG1, mutation in one H chain only; also called He Ab
On to B1, for which the He/Con_1a is 109 relative, control = 100.

B2: GpH7-A5/GpH7-B3 variant T335_05P/GpL16-k0 (antibody, human IgG1, kappa)
heavy 1: not shown
heavy 2: not shown
light: DIVMTQSPLSLPVTPGEPASISCQASESLVHSNRNTYLHWYLQKPGQSPQLLIYKVSNRFSGVPDRFSGSGSGTDFTLKISRVEAEDVGVYYCSQNTHVPPTFGQGTKVEIERTVAAPSVFIFPPSDEQLKSGTASVVCLLNNFYPREAKVQWKVDNALQSGNSQESVTEQDSKDSTYSLSSTLTLSKADYEKHKVYACEVTHQGLSSPVTKSFNRGEC
notes: as for B1
B2: the He/Con_1a is 106 relative, control = 100.

B3: GpH7-A5/GpH7-B3 variant T335_09D/GpL16-k0 (antibody, human IgG1, kappa)
heavy 1: not shown
heavy 2: not shown
light: DIVMTQSPLSLPVTPGEPASISCQASESLVHSNRNTYLHWYLQKPGQSPQLLIYKVSNRFSGVPDRFSGSGSGTDFTLKISRVEAEDVGVYYCSQNTHVPPTFGQGTKVEIERTVAAPSVFIFPPSDEQLKSGTASVVCLLNNFYPREAKVQWKVDNALQSGNSQESVTEQDSKDSTYSLSSTLTLSKADYEKHKVYACEVTHQGLSSPVTKSFNRGEC
notes: as for B1
In the case of B3, the He/Con_1a is 108 relative, control = 100.

B4: GpH7-A5/GpH7-B3 variant S337_09D/GpL16-k0 (antibody, human IgG1, kappa)
heavy 1: not shown
heavy 2: not shown
light: DIVMTQSPLSLPVTPGEPASISCQASESLVHSNRNTYLHWYLQKPGQSPQLLIYKVSNRFSGVPDRFSGSGSGTDFTLKISRVEAEDVGVYYCSQNTHVPPTFGQGTKVEIERTVAAPSVFIFPPSDEQLKSGTASVVCLLNNFYPREAKVQWKVDNALQSGNSQESVTEQDSKDSTYSLSSTLTLSKADYEKHKVYACEVTHQGLSSPVTKSFNRGEC
notes: as for B1
Regarding B4, the He/Con_1a was 106 relative, control = 100.

B5: GpH7-A5/GpH7-B3 variant T335_12R/GpL16-k0 (antibody, human IgG1, kappa)
heavy 1: not shown
heavy 2: not shown
light: DIVMTQSPLSLPVTPGEPASISCQASESLVHSNRNTYLHWYLQKPGQSPQLLIYKVSNRFSGVPDRFSGSGSGTDFTLKISRVEAEDVGVYYCSQNTHVPPTFGQGTKVEIERTVAAPSVFIFPPSDEQLKSGTASVVCLLNNFYPREAKVQWKVDNALQSGNSQESVTEQDSKDSTYSLSSTLTLSKADYEKHKVYACEVTHQGLSSPVTKSFNRGEC
notes: as for B1
Take B5: the He/Con_1a was 113 relative, control = 100.

B6: GpH7-A5/GpH7-B3 variant S337_07I/GpL16-k0 (antibody, human IgG1, kappa)
heavy 1: not shown
heavy 2: not shown
light: DIVMTQSPLSLPVTPGEPASISCQASESLVHSNRNTYLHWYLQKPGQSPQLLIYKVSNRFSGVPDRFSGSGSGTDFTLKISRVEAEDVGVYYCSQNTHVPPTFGQGTKVEIERTVAAPSVFIFPPSDEQLKSGTASVVCLLNNFYPREAKVQWKVDNALQSGNSQESVTEQDSKDSTYSLSSTLTLSKADYEKHKVYACEVTHQGLSSPVTKSFNRGEC
notes: as for B1
As for B6, the He/Con_1a was 105 relative, control = 100.

B7: GpH7-A5/GpH7-B3 variant T335_15Y/GpL16-k0 (antibody, human IgG1, kappa)
heavy 1: not shown
heavy 2: not shown
light: DIVMTQSPLSLPVTPGEPASISCQASESLVHSNRNTYLHWYLQKPGQSPQLLIYKVSNRFSGVPDRFSGSGSGTDFTLKISRVEAEDVGVYYCSQNTHVPPTFGQGTKVEIERTVAAPSVFIFPPSDEQLKSGTASVVCLLNNFYPREAKVQWKVDNALQSGNSQESVTEQDSKDSTYSLSSTLTLSKADYEKHKVYACEVTHQGLSSPVTKSFNRGEC
notes: as for B1
Take B7: the He/Con_1a was 107 relative, control = 100.

B8: GpH7-A5/GpH7-B3 variant S337_19Q/GpL16-k0 (antibody, human IgG1, kappa)
heavy 1: not shown
heavy 2: not shown
light: DIVMTQSPLSLPVTPGEPASISCQASESLVHSNRNTYLHWYLQKPGQSPQLLIYKVSNRFSGVPDRFSGSGSGTDFTLKISRVEAEDVGVYYCSQNTHVPPTFGQGTKVEIERTVAAPSVFIFPPSDEQLKSGTASVVCLLNNFYPREAKVQWKVDNALQSGNSQESVTEQDSKDSTYSLSSTLTLSKADYEKHKVYACEVTHQGLSSPVTKSFNRGEC
notes: as for B1
Regarding B8, the He/Con_1a was 105 relative, control = 100.

B9: GpH7-A5/GpH7-B3 variant T335_06M/GpL16-k0 (antibody, human IgG1, kappa)
heavy 1: not shown
heavy 2: not shown
light: DIVMTQSPLSLPVTPGEPASISCQASESLVHSNRNTYLHWYLQKPGQSPQLLIYKVSNRFSGVPDRFSGSGSGTDFTLKISRVEAEDVGVYYCSQNTHVPPTFGQGTKVEIERTVAAPSVFIFPPSDEQLKSGTASVVCLLNNFYPREAKVQWKVDNALQSGNSQESVTEQDSKDSTYSLSSTLTLSKADYEKHKVYACEVTHQGLSSPVTKSFNRGEC
notes: as for B1
As for B9, the He/Con_1a is 107 relative, control = 100.

B10: GpH7-A5/GpH7-B3 variant T335_11K/GpL16-k0 (antibody, human IgG1, kappa)
heavy 1: not shown
heavy 2: not shown
light: DIVMTQSPLSLPVTPGEPASISCQASESLVHSNRNTYLHWYLQKPGQSPQLLIYKVSNRFSGVPDRFSGSGSGTDFTLKISRVEAEDVGVYYCSQNTHVPPTFGQGTKVEIERTVAAPSVFIFPPSDEQLKSGTASVVCLLNNFYPREAKVQWKVDNALQSGNSQESVTEQDSKDSTYSLSSTLTLSKADYEKHKVYACEVTHQGLSSPVTKSFNRGEC
notes: as for B1
With B10, the He/Con_1a was 111 relative, control = 100.

B11: GpH7-A5/GpH7-B3 variant S337_15Y/GpL16-k0 (antibody, human IgG1, kappa)
heavy 1: not shown
heavy 2: not shown
light: DIVMTQSPLSLPVTPGEPASISCQASESLVHSNRNTYLHWYLQKPGQSPQLLIYKVSNRFSGVPDRFSGSGSGTDFTLKISRVEAEDVGVYYCSQNTHVPPTFGQGTKVEIERTVAAPSVFIFPPSDEQLKSGTASVVCLLNNFYPREAKVQWKVDNALQSGNSQESVTEQDSKDSTYSLSSTLTLSKADYEKHKVYACEVTHQGLSSPVTKSFNRGEC
notes: as for B1
For B11, the He/Con_1a is 104 relative, control = 100.
